In the supplement of paper PMC11865577:

Each sequence was assayed on G-clamp-N3 (biotin conjugate) (assay: pull-down binding Z-score (relative to library population); higher = stronger binding). Details: RNA library: Library-1 (pre-miRNA loops + repeats).
Outline: (§1)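 Biotin-conjugated small molecule (100 pmol) on streptavidin beads was incubated with 1 μg of heat-folded Cy5- or Cy3-end-labelled RNA library in phosphate/NaCl/KCl buffer at 25 °C for 60 min. Following three washes, RNA was eluted with hot SDS and hybridised at 55.5 °C for 20 h to a DNA barcode microarray. The binding value is a Z-score computed from the library mean and standard deviation, after subtraction of beads without compound and averaging of barcoded replicate probes with the highest and lowest excluded.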
With GGGGCCCUACUUUAAGGGCCCU [hsa-mir-8087] the “pull-down binding Z-score” value was 1.03.
In the case of GGGGCCUGUGGUCCC [hsa-mir-1268a], the “pull-down binding Z-score” value is reported as 0.885.
For GGGGCUCUU [hsa-mir-4634], the “pull-down binding Z-score” value was -0.697.
“GGGGCUGAGGCUGAGUCUUCCUCCC [hsa-mir-6756]” was tested, and the “pull-down binding Z-score” value was 0.713.
In the case of “GGGGCUGGCUGGGUCUGGUAGUGGGCAUCAGCUGGCCCU [hsa-mir-1207]”, the “pull-down binding Z-score” value is reported as 2.
GGGGCUGGUUGUCUA [hsa-mir-6080] was tested, and the “pull-down binding Z-score” value was 0.388.
For “GGGGGCAGGCAGGGGAUUGGCUAAGAACCUGACUCUUGC [hsa-mir-7703]”, the “pull-down binding Z-score” value was -0.0197.
GGGGGCAGGCUGCCACCUCCUG [hsa-mir-8089] was tested, and the “pull-down binding Z-score” value was -0.161.
In the case of GGGGGUGGCCGGGGCUGACCCU [hsa-mir-939], the “pull-down binding Z-score” value is reported as 0.0126.
With GGGGUAGAAGCCACCCG [hsa-mir-4466] the “pull-down binding Z-score” value was 0.458.
With GGGGUCUUGCUCUAUU [hsa-mir-6088] the “pull-down binding Z-score” value was 0.123.
“GGGGUGGCUGCGGGCCUUCUGAAGGUCUCCC [hsa-mir-662]” was tested, and the “pull-down binding Z-score” value was 0.76.
With GGGGUUUUUGCCUCCAACUGACUCC [hsa-mir-155] the “pull-down binding Z-score” value was -0.504.
“GGGUCAGGUCUGCAGCCUUGUAUCUGCUGAUCC [hsa-mir-6881]” was tested, and the “pull-down binding Z-score” value was -0.0593.
With “GGGUCAGUGGCAGAGCCAGGCAGAUGCUGACCC [hsa-mir-6832]” the “pull-down binding Z-score” value was 2.93.
For GGGUCCUAAGGUGUGUCCUC [hsa-mir-1976], the “pull-down binding Z-score” value was -0.979.
GGGUCGUGGGAAAGUGUUGACCC [hsa-mir-4655] was tested, and the “pull-down binding Z-score” value was 1.79.
With “GGGUGAGAGUGCUUUCUGAAUGCAGUGCACCC [hsa-mir-500b]” the “pull-down binding Z-score” value was 0.8.
For “GGGUGAUACACAAGCCUGACCCUCCC [hsa-mir-6793]”, the “pull-down binding Z-score” value was -0.976.
With “GGGUGGGCGGGGGCGGCCGGUGGGAACCCCGCCCCGCCCCGCGCCCGCACUCACCC [hsa-mir-7108]” the “pull-down binding Z-score” value was 0.489.
For GGGUGUAUGGUAUAGGGGUAGCCU [hsa-mir-3137], the “pull-down binding Z-score” value was 3.31.
For “GGGUUCAAUAGAUUGCUUUAGCUGAAGCAAGCCU [hsa-mir-8054]”, the “pull-down binding Z-score” value was -0.803.
For “GGGUUGCAUCCUAAGCUGUGCUGGAGCUUCCC [hsa-mir-623]”, the “pull-down binding Z-score” value was -0.84.
In the case of GGUAAGGUCUUUCAGCC [hsa-mir-7150], the “pull-down binding Z-score” value is reported as 0.213.
“GGUACUUUAUAAUUUCAAAAAGUCCC [hsa-mir-361]” was tested, and the “pull-down binding Z-score” value was -0.194.
For GGUAGAGAUGAUUUUUCCUACU [hsa-mir-5003], the “pull-down binding Z-score” value was 0.245.
“GGUAGGUUACGUCAUGCUGUUCUACC [hsa-mir-140]” was tested, and the “pull-down binding Z-score” value was 0.599.
“GGUAUGGAUUCUGUUGUUUUGGCAACAUUCU [hsa-mir-8088]” was tested, and the “pull-down binding Z-score” value was 0.269.
“GGUCAGGUGGUGCCCUCCUUCCAUGGGUAGAGCCAGAGAUGGUGGGUUCUGGCU [hsa-mir-6131]” was tested, and the “pull-down binding Z-score” value was 0.859.
“GGUCUGAGCCCAUGUGUGGACCUAGGUCUGCUGUUAAACUGACU [hsa-mir-6831]” was tested, and the “pull-down binding Z-score” value was -0.752.
GGUGCAAAGCCUGCCCGCCCC [hsa-mir-5090] was tested, and the “pull-down binding Z-score” value was -0.81.
In the case of GGUGCAGUCAGUCCUAGCUC [hsa-mir-3135b], the “pull-down binding Z-score” value is reported as -1.49.
GGUGGCAAUCAAGGUCUAGCCACC [hsa-mir-4733] was tested, and the “pull-down binding Z-score” value was 1.02.
In the case of “GGUGGGCCUCUGCUCUGGCCCCUCC [hsa-mir-1343]”, the “pull-down binding Z-score” value is reported as 0.11.
In the case of “GGUGGGGGCUCUGAGUGGGGAAAGUGGGGGCCUAGGGGAGGUCACAGU [hsa-mir-4259]”, the “pull-down binding Z-score” value is reported as 0.943.
For GGUGGGUGCC [hsa-mir-1268b], the “pull-down binding Z-score” value was -0.587.
With “GGUGGGUGGGAAGUAAGAUCUGACCUGGACUCCAUCCCACCCACC [hsa-mir-4640]” the “pull-down binding Z-score” value was 0.122.
GGUGGUUGUGGGAGUCACU [hsa-mir-4418] was tested, and the “pull-down binding Z-score” value was -0.575.
With GGUGUCAUGCCCCAAGAUAACC [hsa-mir-634] the “pull-down binding Z-score” value was -0.532.
With GGUGUCGAACUCAUGGCUGCCACC [hsa-mir-6782] the “pull-down binding Z-score” value was 0.197.
In the case of “GGUUCAAGUUUGGCUCCAUCUUUAUGAAA [hsa-mir-4506]”, the “pull-down binding Z-score” value is reported as -0.636.
With GGUUCCCACGCCGCGGCAACC [hsa-mir-6776] the “pull-down binding Z-score” value was -1.36.
For GGUUCUCAGUCAGAACC [hsa-mir-6813], the “pull-down binding Z-score” value was 0.755.
In the case of “GGUUCUGGGGUGUAGACGCUGCUGGCCAGCC [hsa-mir-4707]”, the “pull-down binding Z-score” value is reported as 1.08.
For GGUUCUUCCCGAAGC [hsa-mir-4710], the “pull-down binding Z-score” value was 0.205.
With GGUUGCUGGAGGUCAGC [hsa-mir-6871] the “pull-down binding Z-score” value was 0.0274.
With “GGUUGGCCGCUGACCCCCGCGGGGCCCCCGGCGGCC [hsa-mir-3195]” the “pull-down binding Z-score” value was 0.0226.
With “GGUUGGGGUGGGCUGCCUGUGGACCAAUC [hsa-mir-4525]” the “pull-down binding Z-score” value was 0.722.
With GGUUGUUAGAUAGACAACU [hsa-mir-4510] the “pull-down binding Z-score” value was 0.718.
For GGUUGUUUAAUUAGGAACCAACU [hsa-mir-190b], the “pull-down binding Z-score” value was -0.019.
In the case of “GGUUUCCUUCGGGGCAGGUGGGGACUGCUCCUUUGGGAGGAAGGAGGAGGCC [hsa-mir-4453]”, the “pull-down binding Z-score” value is reported as 1.28.
In the case of GGUUUCGGGCUGCC [hsa-mir-661], the “pull-down binding Z-score” value is reported as 0.142.
GGUUUCUUAAAAUGGAAUCU [hsa-mir-1255b-1] was tested, and the “pull-down binding Z-score” value was 0.385.
In the case of GGUUUGCGCCUCAAGAAACC [hsa-mir-1255b-2], the “pull-down binding Z-score” value is reported as 0.436.
With GGUUUUGCCAUCAUGCCAAAAGCU [hsa-mir-548v] the “pull-down binding Z-score” value was -0.76.
GGUUUUUACCAUUAAAACC [hsa-mir-548aw] was tested, and the “pull-down binding Z-score” value was -0.37.
For GUAAGAGAGACUCUCGCUUCCUGC [hsa-mir-874], the “pull-down binding Z-score” value was -1.
GUAGAUUGAAAGCCCUAAUUUUAC [hsa-mir-3941] was tested, and the “pull-down binding Z-score” value was -0.805.
GUAGAUUUUAUGUCAC [hsa-mir-892b] was tested, and the “pull-down binding Z-score” value was -0.748.
For “GUAUACUGAGCUUAUGUAUGCAUCUGCAUAC [hsa-mir-5591]”, the “pull-down binding Z-score” value was 0.344.
“GUAUGAGUGCCACAGAGCCGUCAUAA [hsa-mir-9-3]” was tested, and the “pull-down binding Z-score” value was -0.99.
In the case of “GUAUGAGUGGUGUGGAGUCUUCAUAA [hsa-mir-9-1]”, the “pull-down binding Z-score” value is reported as -0.511.
In the case of GUAUGAGUGUAUUGGUCUUCAUAA [hsa-mir-9-2], the “pull-down binding Z-score” value is reported as -0.373.
With GUCACAAAUUCAAAUAAAGUGAG [hsa-mir-4693] the “pull-down binding Z-score” value was -1.04.
In the case of “GUCACCAGCCCUCAUGUACUUGUGAC [hsa-mir-6820]”, the “pull-down binding Z-score” value is reported as -1.09.
For GUCACUGUCUCAAAUCAGUGAC [hsa-mir-549a], the “pull-down binding Z-score” value was -0.711.
In the case of GUCAGGAGUGGCUUUCCUGAC [hsa-mir-4462], the “pull-down binding Z-score” value is reported as -0.232.
For “GUCAGGUGAUGGUGAUAAGGUCAAGGCCUG [hsa-mir-6853]”, the “pull-down binding Z-score” value was 0.547.
In the case of “GUCAGUCCCAAUCUGAAUCCCACCAAAAUAGGUGGUAGAGGGUUGC [hsa-mir-4290]”, the “pull-down binding Z-score” value is reported as -1.14.
In the case of GUCAUUACUUUCAAUAGC [hsa-mir-548p], the “pull-down binding Z-score” value is reported as 0.0268.
With GUCAUUUCCCAUCACUAAUGGC [hsa-mir-6815] the “pull-down binding Z-score” value was -0.92.
“GUCAUUUUUCUGUGACUGCACAUGGC [hsa-mir-3136]” was tested, and the “pull-down binding Z-score” value was -0.497.
“GUCCAUUAGGCUUUGUUAUGGAAACUUCUCCUGAUC [hsa-mir-635]” was tested, and the “pull-down binding Z-score” value was -0.608.
For GUCCCAAUACAUGUGGGCC [hsa-mir-586], the “pull-down binding Z-score” value was -0.0916.
GUCCGGGUGGGUUCCGGCA [hsa-mir-657] was tested, and the “pull-down binding Z-score” value was -2.05.

These sequences were tested on TO-N3-2 (biotin conjugate) in the same assay as above. Details: RNA library: Library-2.
Outline: as §1
In the case of GGGGCCCUACUUUAAGGGCCCU [hsa-mir-8087], the “pull-down binding Z-score” value is reported as -0.706.
GGGGCCUGUGGUCCC [hsa-mir-1268a] was tested, and the “pull-down binding Z-score” value was -0.675.
In the case of GGGGCUCUU [hsa-mir-4634], the “pull-down binding Z-score” value is reported as 0.21.
For “GGGGCUGAGGCUGAGUCUUCCUCCC [hsa-mir-6756]”, the “pull-down binding Z-score” value was 1.53.
For “GGGGCUGGCUGGGUCUGGUAGUGGGCAUCAGCUGGCCCU [hsa-mir-1207]”, the “pull-down binding Z-score” value was 1.22.
GGGGCUGGUUGUCUA [hsa-mir-6080] was tested, and the “pull-down binding Z-score” value was 0.516.
With “GGGGGCAGGCAGGGGAUUGGCUAAGAACCUGACUCUUGC [hsa-mir-7703]” the “pull-down binding Z-score” value was 1.75.
GGGGGCAGGCUGCCACCUCCUG [hsa-mir-8089] was tested, and the “pull-down binding Z-score” value was 1.36.
For GGGGGUGGCCGGGGCUGACCCU [hsa-mir-939], the “pull-down binding Z-score” value was 2.08.
With GGGGUAGAAGCCACCCG [hsa-mir-4466] the “pull-down binding Z-score” value was 1.46.
With GGGGUCUUGCUCUAUU [hsa-mir-6088] the “pull-down binding Z-score” value was 0.111.
With “GGGGUGGCUGCGGGCCUUCUGAAGGUCUCCC [hsa-mir-662]” the “pull-down binding Z-score” value was 1.24.
In the case of GGGGUUUUUGCCUCCAACUGACUCC [hsa-mir-155], the “pull-down binding Z-score” value is reported as -0.135.
For “GGGUCAGGUCUGCAGCCUUGUAUCUGCUGAUCC [hsa-mir-6881]”, the “pull-down binding Z-score” value was -0.107.
“GGGUCAGUGGCAGAGCCAGGCAGAUGCUGACCC [hsa-mir-6832]” was tested, and the “pull-down binding Z-score” value was 0.72.
With GGGUCCUAAGGUGUGUCCUC [hsa-mir-1976] the “pull-down binding Z-score” value was 0.812.
In the case of GGGUCGUGGGAAAGUGUUGACCC [hsa-mir-4655], the “pull-down binding Z-score” value is reported as 0.588.
In the case of “GGGUGAGAGUGCUUUCUGAAUGCAGUGCACCC [hsa-mir-500b]”, the “pull-down binding Z-score” value is reported as 0.985.
